This experiment addresses human complement Factor H (human) (UniProt P08603). The experiment can be described thus: steady state fluorescence, titration of purified human Factor H with rOPN.

Sequence of human complement Factor H (human) (P08603 19-1231 limits assumed): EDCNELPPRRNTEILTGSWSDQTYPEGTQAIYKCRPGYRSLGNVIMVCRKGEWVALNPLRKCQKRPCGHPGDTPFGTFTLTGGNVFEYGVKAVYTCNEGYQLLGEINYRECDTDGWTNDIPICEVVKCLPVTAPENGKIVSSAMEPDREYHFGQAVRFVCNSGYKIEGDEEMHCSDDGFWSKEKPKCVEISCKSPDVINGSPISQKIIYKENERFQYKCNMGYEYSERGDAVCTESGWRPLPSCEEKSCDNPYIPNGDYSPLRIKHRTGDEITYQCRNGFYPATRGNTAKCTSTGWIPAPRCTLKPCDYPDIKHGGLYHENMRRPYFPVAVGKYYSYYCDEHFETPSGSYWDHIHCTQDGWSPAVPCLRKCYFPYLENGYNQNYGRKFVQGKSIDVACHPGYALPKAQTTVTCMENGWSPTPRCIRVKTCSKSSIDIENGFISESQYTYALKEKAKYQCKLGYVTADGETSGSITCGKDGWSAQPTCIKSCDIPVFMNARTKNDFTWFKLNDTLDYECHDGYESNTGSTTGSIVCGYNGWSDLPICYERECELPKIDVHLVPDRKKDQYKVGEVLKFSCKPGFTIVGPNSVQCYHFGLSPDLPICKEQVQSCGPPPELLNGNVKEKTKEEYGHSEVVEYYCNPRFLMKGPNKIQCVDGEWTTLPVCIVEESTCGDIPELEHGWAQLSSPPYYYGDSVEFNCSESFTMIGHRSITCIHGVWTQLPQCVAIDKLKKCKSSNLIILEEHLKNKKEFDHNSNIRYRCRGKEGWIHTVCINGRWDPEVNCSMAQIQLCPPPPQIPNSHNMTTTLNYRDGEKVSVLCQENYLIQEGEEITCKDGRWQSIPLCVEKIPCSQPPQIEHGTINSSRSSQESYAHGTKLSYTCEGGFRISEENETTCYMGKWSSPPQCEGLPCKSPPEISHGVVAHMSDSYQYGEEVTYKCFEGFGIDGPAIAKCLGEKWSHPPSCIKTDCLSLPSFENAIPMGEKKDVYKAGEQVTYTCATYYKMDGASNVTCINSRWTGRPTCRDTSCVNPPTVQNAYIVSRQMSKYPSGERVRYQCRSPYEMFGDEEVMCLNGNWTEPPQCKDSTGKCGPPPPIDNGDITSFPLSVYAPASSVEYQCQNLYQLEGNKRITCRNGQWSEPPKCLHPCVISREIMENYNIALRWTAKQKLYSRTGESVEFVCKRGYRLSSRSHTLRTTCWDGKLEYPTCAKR

The substance “recombinant osteopontin (rOPN) (from UniProt P10451 17-300) (ligand)” came in with a stoichiometry (OPN:Factor H) of 1 mol/mol.

(Values after US6995018.)
